According to patent US20040123344A1, “Novel gene encoding an f-box protein which regulates leaf longevity in arabidopsis thaliana and mutant gene thereof” (priority 2000, published 2004):

T1: GST-ASK1 fusion protein (Arabidopsis thaliana, UniProt Q39255)
T1 construct: made in house; host or cells: Escherichia coli BL21(DE3) pLysS
T1 sequence (Q39255 1-160): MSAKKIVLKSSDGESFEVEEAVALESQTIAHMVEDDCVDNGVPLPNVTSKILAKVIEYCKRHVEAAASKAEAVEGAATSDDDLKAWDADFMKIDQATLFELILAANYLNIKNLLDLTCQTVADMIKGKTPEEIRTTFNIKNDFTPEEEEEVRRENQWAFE

T2: ASK1(1-160) (Arabidopsis thaliana, UniProt Q39255)
T2 construct: constructing the plasmid pGAD424-ASK1(1-160)[3] expressing fusion protein of ASK1 and GAL4-4AD; expressed in transfected cells; host or cells: Saccharomyces cerevisiae HF7c
T2 sequence (Q39255 1-160): T1 sequence (Q39255 1-160)

B1: ORE9 (50-693): fragment of ORE9 containing 50-693th amino acids from which the F-box region was removed (protein)
chain: MKLLSSIEQACDICRLKKLKCSKEKPKCAKCLKNNWECRYSPKTKRSPLTRAHLTEVESRLERLEQLFLLIFPREDLDMILKMDSLQDIKALLTGLFVQDNVNKDAVTDRLASVETDMPLTLRQHRISATSSSEESSNKGQRQLTVSIRGNARDLSLVPDCFRSISHLDLSFLSPWGHTLLASLPIDHQNLLALRLKFCFPFVESLNVYTRSPSSLELLLPQWPRIRHIKLLRWHQRASQIPTGGDFVPIFEHCGGFLESLDLSNFYHWTEDLPPVLLRYADVAARLTRLDLLTASFTEGYKSSEIVSITKSCPNLKTFRVACTFDPRYFEFVGDETLSAVATSSPKLTLLHMVDTASLANPRAIPGTEAGDSAVTAGTLIEVFSGLPNLEELVLDVGKDVKHSGVALEALNSKCKKLRVLKLGQFQGVCSATEWRRLDGVALCGGLQSLSIKNSGDLTDMGLVAIGRGCCKLTTFEIQGCENVTVDGLRTMVSLRSKTLTDVRISCCKNLDTAASLKAIEPICDRIKRLHIDCVWSGSEDEEVEGRVETSEADHEEEDDGYERSQKRCKYSFEEEHCSTSDVNGFCSEDRVWEKLEYLSLWINVGEFLTPLPMTGLDDCPNLEEIRIKIEGDCRGKRRPAEPEFGLSCLALYPKLSKMQLDCGDTIGFALTAPPMQMDLSLWERFFLTGIGSLSLSELDYWPPQDRDVNQRSLSLPGAGLLQECLTLRKLFIHGTAHEHFMNFLLRIPNLRDVQLRADYYPAPENDMSTEMRVGSCSRFEDQLNSRNIID
B2: ORE9 (1-693): complete ORE9 protein, 693 amino acids, F-box motif and 18 LRRs, SEQ ID NO: 2 (protein, listed as Arabidopsis thaliana)
chain: MASTTLSDLPDVILSTISSLVSDSRARNSLSLVSHKFLALERSTRSHLTIRGNARDLSLVPDCFRSISHLDLSFLSPWGHTLLASLPIDHQNLLALRLKFCFPFVESLNVYTRSPSSLELLLPQWPRIRHIKLLRWHQRASQIPTGGDFVPIFEHCGGFLESLDLSNFYHWTEDLPPVLLRYADVAARLTRLDLLTASFTEGYKSSEIVSITKSCPNLKTFRVACTFDPRYFEFVGDETLSAVATSSPKLTLLHMVDTASLANPRAIPGTEAGDSAVTAGTLIEVFSGLPNLEELVLDVGKDVKHSGVALEALNSKCKKLRVLKLGQFQGVCSATEWRRLDGVALCGGLQSLSIKNSGDLTDMGLVAIGRGCCKLTTFEIQGCENVTVDGLRTMVSLRSKTLTDVRISCCKNLDTAASLKAIEPICDRIKRLHIDCVWSGSEDEEVEGRVETSEADHEEEDDGYERSQKRCKYSFEEEHCSTSDVNGFCSEDRVWEKLEYLSLWINVGEFLTPLPMTGLDDCPNLEEIRIKIEGDCRGKRRPAEPEFGLSCLALYPKLSKMQLDCGDTIGFALTAPPMQMDLSLWERFFLTGIGSLSLSELDYWPPQDRDVNQRSLSLPGAGLLQECLTLRKLFIHGTAHEHFMNFLLRIPNLRDVQLRADYYPAPENDMSTEMRVGSCSRFEDQLNSRNIID
B3: ORE9(1-49): fragment of ORE9 containing N-terminal 1-49th amino acids corresponding to the F-box region (protein)
chain: MKLLSSIEQACDICRLKKLKCSKEKPKCAKCLKNNWECRYSPKTKRSPLTRAHLTEVESRLERLEQLFLLIFPREDLDMILKMDSLQDIKALLTGLFVQDNVNKDAVTDRLASVETDMPLTLRQHRISATSSSEESSNKGQRQLTVSMASTTLSDLPDVILSTISSLVSDSRARNSLSLVSHKFLALERSTRSHLT
B4: ORE9 (1-327): part of ORE9 (1-327) containing the F-box region (protein, UniProt Q9SIM9 1-327, looked up, fragment)
chain: MASTTLSDLPDVILSTISSLVSDSRARNSLSLVSHKFLALERSTRSHLTIRGNARDLSLVPDCFRSISHLDLSFLSPWGHTLLASLPIDHQNLLALRLKFCFPFVESLNVYTRSPSSLELLLPQWPRIRHIKLLRWHQRASQIPTGGDFVPIFEHCGGFLESLDLSNFYHWTEDLPPVLLRYADVAARLTRLDLLTASFTEGYKSSEIVSITKSCPNLKTFRVACTFDPRYFEFVGDETLSAVATSSPKLTLLHMVDTASLANPRAIPGTEAGDSAVTAGTLIEVFSGLPNLEELVLDVGKDVKHSGVALEALNSKCKKLRVLKLGQ

Tests used:
GST-ASK1 fusion protein = target: T1, GST-ASK1 fusion protein; test: In vitro binding assay with GST-ASK1 fusion protein; settings: 35S-labeled in vitro translation product; glutathione beads; GST as negative control
Source text: In order to examine that ORE9 protein or derivatives thereof directly bind with ASK1, a GST-ASK1 fusion protein and a ^35S-labeled ORE9 protein produced by in vitro translation were subjected to in vitro binding assay. To obtain a glutathione S-transferase (GST) protein and a GST-ASK1 fusion protein, a vector pGEX (APBiotech, Co.) and a vector pGEX-ASK1 were constructed, which express the above proteins, respectively. Artificial sequences represented by SEQ ID NO: 14 and SEQ ID NO: 15 were used as PCR primers to amplify a gene encoding the ASK1 fragment. The resulting PCR product was digested with EcoRI and NcoI restriction enzymes, and inserted into the restriction enzyme sites of the pGEX vector. Escherichia coli BL21(DE3) pLysS was transformed with the resulting two vectors, and GST and GST-ASK1 fusion proteins were expressed. The GST and GST-ASK1 fusion proteins were purified by chromatography with glutathione-Sepharose 4B beads. The purified proteins was subjected to electrophoresis with SDS-polyacryamide gets, dyed with Coomassie blue, and measured for their amount. GST and GST-ASK1 fusion proteins of the same amount were added to glutathione beads, which had been previously washed with 10-fold volume of B buffer (20 mM […], pH 7.6, 150 mM sodium chloride, 10% glycerol, 0.5% NP-40, 1 mM DTT) three times. Then, the resulting proteins were adsorbed 4° C. for one hour using a rotating mixer. The provided beads were washed with 1 ml B buffer three times, and then stored in a state where the ratio of slurries relative to B buffer is 50%.
Meanwhile, a radioactivity-labeled ORE9 (1-693), the mutant type ore9 and ORE9 derivatives (1-327 and 50-693) were prepared using the in vitro transcription/translation system (Promega, USA) and [^35S]-methionine (DuPont NEN, USA). The proteins were quantitatively analyzed with SDS-PAGE and BAS radioanalytic imaging system (Japan). Then, the respective ^35S-labeled translation products of the same amount were mixed with 60 μl GST-adsorbed beads or GST-ASK1 fusion protein-absorbed beads, contained in 1 ml GB buffer (final concentration: 20 mM Tris-HCl, pH 7.5, 0.15% NP-40, 150 mM NaCl, 1 mM EDTA). The resulting beads were cultured in a rotating mixer at 4° C. for two hours, and then washed with 1 ml GB buffer four times. The washed beads were added with 30 μl of 2×SDS sample solutions, boiled for three minutes and then isolated with SDS-PAGE. The resulting gels were dried to dryness, and then exposed to X-ray film.

ASK1(1-160) = target: T2, ASK1(1-160); test: Yeast two-hybrid assay with ASK1; type: cell-based; settings: HF7c yeast; for binding with ASK1 in yeast two-hybrid assay: GAL4-BD fusion
Source text: As expression vectors of expressing GAL4 DNA binding domain (GAL4-BD) and ORE9 fusion protein, plasmids pGBT9-ORE9 (1-49) and pGBT9-ORE9 (50-693) were constructed. The plasmid pGBT9-ORE9 expresses a fragment of ORE9 containing N-terminal 1-49th amino acids corresponding to an F-box region of ORE9, and the plasmid pGBT9-ORE9 (50-693) expresses a fragment of ORE9 containing 50-693th amino acids from which the F-box region was removed.
First, the gene encoding the ORE9 (1-49) fragment was amplified by PCR using a primer represented by SEQ ID NO: 10 and SEQ ID NO: 11, and then inserted into BamHI and PstI restriction enzyme sites of pGBT9 (Clontech, USA) containing a 4-BD gene and a tryptophan auxotrophic selection marker gene (TRP1), thereby constructing the plasmid pGBT9-ORE9 (1-49). Similarly, the plasmid pGBT 9-ORE9 (50-693) was constructed, which expresses an ORE9 (50-693) fragment and a GAL4-BD fusion protein. In this case, oligonucletides represented by SEQ ID NO: 12 and SEQ ID NO: 13 were used as PCR primers to amplify the gene encoding the ORE9 (50-693) fragment.
Meanwhile, regarding ASK1(1-160) and ASK2(1-172) proteins used for identification of binding, pGAD424-ASK1(1-160) and pGAD424-ASK2(1-172) were constructed in such a manner that ASK1(1-160) and ASK2(1-172) are expressed in the form of a fusion protein with a […]. pGTE-ASK1(1-160) containing an ASK1(1-160) gene was digested with BamHI and PstI, and then inserted into pGAD424 (Clontech, USA) containing a GAL4-AD gene and a leucine auxotrophic selection marker gene (LEU2), thereby constructing the plasmid pGAD424-ASK1(1-160)[3] expressing fusion protein of ASK1 and GAL4-4AD. Similarly, the plasmid pGAD424-ASK2(1-172)[4] was constructed by inserting a BamHI/PstI fragment of pGTE-ASK2(1-172) into pGAD424.
Yeast strains, HF7c, were cultured in an YPD (yeast extract, peptone, dextrose) medium or a synthetic minimal medium (SD) containing 2% dextrose.
The HF7c yeast strains grown in the medium were transformed with different combinations of the vectors constructed in the above Example 6-1) ([1+3], [2+3] and [1+4]; see the left upper portion of FIG. 7b), respectively, by the lithium acetate method (Feilotter et al., 1994). The transformants were selected in a synthetic minimal medium containing 2% dextrose. The transformants were cultured in a SD medium from which tryptophan and leucine were removed (see the right upper portion of FIG. 7b), and in a SD medium from which tryptophan, leucine and histidine were removed and which contains 2 mM 3-amino-1,2,4-triazole (3-AT) (see the left lower portion of FIG. 7b).
The transformants were grown in a synthesis minimal medium, and the grown yeast colonies were examined for β-galactosidase activities on a filter paper. […]

Row | Molecule | binding (co-precipitation) with GST-ASK1 (GST-ASK1 fusion protein) | binding with ASK1 in yeast two-hybrid assay (ASK1(1-160)) | growth of transformed yeast in histidine deficient medium (ASK1(1-160); GAL4-BD fusion with GAL4-AD-ASK1(1-160), SD medium without tryptophan, leucine, histidine, 2 mM 3-AT) | β-galactosidase activity of transformed yeast (ASK1(1-160); with ASK1(1-160) plasmid, X-gal filter assay)
1 | B1 | fails to bind with GST-ASK1 | fails to bind with ASK1 | – | –
2 | B2 | directly bound to ASK1 | did not exhibit positive signals for binding to ASK1 | – | –
3 | B3 | – | – | grown in the histidine deficient medium | exhibit the β-galactosidase activity
4 | B4 | co-precipitated with the GST-ASK1 fusion protein | – | – | –
